Experimental data: US20250026834A1 (ZOETIS SERVICES, published 2025)

Molecular target: NGF (target protein of the anti-NGF antibodies mAb2 and mAb3)
Experiment: cell-based or functional assay

NGF (target protein of the anti-NGF antibodies mAb2 and mAb3), sequence (P01138 122-241): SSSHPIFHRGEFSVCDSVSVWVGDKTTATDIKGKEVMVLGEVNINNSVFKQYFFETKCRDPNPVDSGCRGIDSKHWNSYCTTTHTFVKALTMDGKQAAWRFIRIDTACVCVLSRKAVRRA

B1: mAb3 (felinized anti-NGF, ZTS-768) IgG1a WT (antibody, V domains shown)
VH: DVQLVESGGDLVKPGGSLRLTCVASGFTYSNYWMHWVRQAPGKGLQWVARIDPYGGGTKHNEKFKRRFTISRDNAKNTLYLQMNSLKTEDTATYYCVRSGYDYYFDVWGQGTLVTVSS
VL: EIQMTQSPSSLSASPGDRVTITCRASENIYSFLAWYQQKPGKVPKLLIYNANTLAEGVPSRFSGSGSGTDFTLTISSLEPEDAATYYCQHHFGTPFTFGSGTKLEIKR
IC50 (cell based potency assay): 0.036 nM
